Experimental data as given in patent publication US20230365658A1.

Molecular target: SARS-CoV-2 spike (S) glycoprotein, Omicron BA.4.6 (SARS-CoV-2), P0DTC2
Assay: cell-based or functional assay

B1: mAb_v2130Vanderbilt_184_20220114_00112 (antibody, V domains shown)
VH: EVQLVESGGGLVKPGGSLRLSCAASGFTFRDVWMSWVRQAPGKGLEWVGRIKSKIDGGTTDYAAPVKGRFTISRDDSKNTLYLQMNSLKTEDTAVYYCTTAGSYYYDTVGPELPEGKFDYWGQGTLVTVSS
VL: not shown
- pseudoviral neutralization IC50: 1.26 µg/mL
